# Measured values as given in the supplement of paper PMC11316812.
# ± gives the standard deviation of the averaged measurements.
# Assays:
# [1] = tested on: MCF7; assay: percentage of EdU-negative (G0-arrested) nuclei per well, 72 h; higher = more G0 arrest; conditions: reference: sequence is the full UniProt precursor, the tested protein was the secreted form or ectodomain
# [2] = tested on: hTERT-HMEC; assay: as above; conditions: reference: sequence is the full UniProt precursor, the tested protein was the secreted form or ectodomain
# [3] = protein concentration 0.0191429 µM
# [4] = protein concentration 0.191429 µM
# [5] = protein concentration 0.03125 µM
# [6] = protein concentration 0.3125 µM
# [7] = protein concentration 0.01925 µM
# [8] = protein concentration 0.1925 µM
# [9] = protein concentration 0.0157525 µM
# [10] = protein concentration 0.157525 µM
# [11] = protein concentration 0.0225 µM
# 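Also: secreted proteins added to cultured cells, EdU pulse at the end, nuclei found by Hoechst imaging, EdU status from nuclear versus surrounding ring intensity ratio, PBS as neutral control.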
sequence,measurement,setting,value
MRPRLWLLLAAQLTVLHGNSVLQQTPAYIKVQTNKMVMLSCEAKISLSNMRIYWLRQRQAPSSDSHHEFLALWDSAKGTIHGEEVEQEKIAVFRDASRFILNLTSVKPEDSGIYFCMIVGSPELTFGKGTQLSVVDFLPTTAQPTKKSTLKKRVCRLPRPETQKGPLCSPITLGLLVAGVLVLLVSLGVAIHLCCRRRRARLRFMKQFYK,percentage of EdU-negative,[1]; [3],27.8 ± 0.56%
same,percentage of EdU-negative,[1]; [4],28.7 ± 0.39%
same,percentage of EdU-negative,[2]; [3],5.15 ± 0.17%
same,percentage of EdU-negative,[2]; [4],4.67 ± 0.05%
MRPTLLWSLLLLLGVFAAAAAAPPDPLSQLPAPQHPKIRLYNAEQVLSWEPVALSNSTRPVVYQVQFKYTDSKWFTADIMSIGVNCTQITATECDFTAASPSAGFPMDFNVTLRLRAELGALHSAWVTMPWFQHYRNVTVGPPENIEVTPGEGSLIIRFSSPFDIADTSTAFFCYYVHYWEKGGIQQVKGPFRSNSISLDNLKPSRVYCLQVQAQLLWNKSNIFRVGHLSNISCYETMADASTELQQVILISVGTFSLLSVLAGACFFLVLKYRGLIKYWFHTPPSIPLQIEEYLKDPTQPILEALDKDSSPKDDVWDSVSIISFPEKEQEDVLQTL,percentage of EdU-negative,[1]; [5],27.1 ± 3%
same,percentage of EdU-negative,[1]; [6],24.6 ± 0.62%
same,percentage of EdU-negative,[2]; [5],5.59 ± 1.2%
same,percentage of EdU-negative,[2]; [6],6.09 ± 0.44%
MRPVSVWQWSPWGLLLCLLCSSCLGSPSPSTGPEKKAGSQGLRFRLAGFPRKPYEGRVEIQRAGEWGTICDDDFTLQAAHILCRELGFTEATGWTHSAKYGPGTGRIWLDNLSCSGTEQSVTECASRGWGNSDCTHDEDAGVICKDQRLPGFSDSNVIEVEHHLQVEEVRIRPAVGWGRRPLPVTEGLVEVRLPDGWSQVCDKGWSAHNSHVVCGMLGFPSEKRVNAAFYRLLAQRQQHSFGLHGVACVGTEAHLSLCSLEFYRANDTARCPGGGPAVVSCVPGPVYAASSGQKKQQQSKPQGEARVRLKGGAHPGEGRVEVLKASTWGTVCDRKWDLHAASVVCRELGFGSAREALSGARMGQGMGAIHLSEVRCSGQELSLWKCPHKNITAEDCSHSQDAGVRCNLPYTGAETRIRLSGGRSQHEGRVEVQIGGPGPLRWGLICGDDWGTLEAMVACRQLGLGYANHGLQETWYWDSGNITEVVMSGVRCTGTELSLDQCAHHGTHITCKRTGTRFTAGVICSETASDLLLHSALVQETAYIEDRPLHMLYCAAEENCLASSARSANWPYGHRRLLRFSSQIHNLGRADFRPKAGRHSWVWHECHGHYHSMDIFTHYDILTPNGTKVAEGHKASFCLEDTECQEDVSKRYECANFGEQGITVGCWDLYRHDIDCQWIDITDVKPGNYILQVVINPNFEVAESDFTNNAMKCNCKYDGHRIWVHNCHIGDAFSEEANRRFERYPGQTSNQII,percentage of EdU-negative,[1]; [7],25.3 ± 1.3%
same,percentage of EdU-negative,[1]; [8],31.5 ± 2.3%
same,percentage of EdU-negative,[2]; [7],4.9 ± 0.65%
same,percentage of EdU-negative,[2]; [8],39.2 ± 1.2%
MRQVCCSALPPPPLEKGRCSSYSDSSSSSSERSSSSSSSSSESGSSSRSSSNNSSISRPAAPPEPRPQQQPQPRSPAARRAAARSRAAAAGGMRRDPAPGFSMLLFGVSLACYSPSLKSVQDQAYKAPVVVEGKVQGLVPAGGSSSNSTREPPASGRVALVKVLDKWPLRSGGLQREQVISVGSCVPLERNQRYIFFLEPTEQPLVFKTAFAPLDTNGKNLKKEVGKILCTDCATRPKLKKMKSQTGQVGEKQSLKCEAAAGNPQPSYRWFKDGKELNRSRDIRIKYGNGRKNSRLQFNKVKVEDAGEYVCEAENILGKDTVRGRLYVNSVSTTLSSWSGHARKCNETAKSYCVNGGVCYYIEGINQLSCKCPNGFFGQRCLEKLPLRLYMPDPKQKAEELYQKRVLTITGICVALLVVGIVCVVAYCKTKKQRKQMHNHLRQNMCPAHQNRSLANGPSHPRLDPEEIQMADYISKNVPATDHVIRRETETTFSGSHSCSPSHHCSTATPTSSHRHESHTWSLERSESLTSDSQSGIMLSSVGTSKCNSPACVEARARRAAAYNLEERRRATAPPYHDSVDSLRDSPHSERYVSALTTPARLSPVDFHYSLATQVPTFEITSPNSAHAVSLPPAAPISYRLAEQQPLLRHPAPPGPGPGPGPGPGPGADMQRSYDSYYYPAAGPGPRRGTCALGGSLGSLPASPFRIPEDDEYETTQECAPPPPPRPRARGASRRTSAGPRRWRRSRLNGLAAQRARAARDSLSLSSGSGGGSASASDDDADDADGALAAESTPFLGLRGAHDALRSDSPPLCPAADSRTYYSLDSHSTRASSRHSRGPPPRAKQDSAPL,percentage of EdU-negative,[1]; [9],24.9 ± 0.53%
same,percentage of EdU-negative,[1]; [10],26.5 ± 0.38%
same,percentage of EdU-negative,[2]; [9],4.61 ± 0.33%
same,percentage of EdU-negative,[2]; [10],5.33 ± 1%
MRRASRDYTKYLRGSEEMGGGPGAPHEGPLHAPPPPAPHQPPAASRSMFVALLGLGLGQVVCSVALFFYFRAQMDPNRISEDGTHCIYRILRLHENADFQDTTLESQDTKLIPDSCRRIKQAFQGAVQKELQHIVGSQHIRAEKAMVDGSWLDLAKRSKLEAQPFAHLTINATDIPSGSHKVSLSSWYHDRGWAKISNMTFSNGKLIVNQDGFYYLYANICFRHHETSGDLATEYLQLMVYVTKTSIKIPSSHTLMKGGSTKYWSGNSEFHFYSINVGGFFKLRSGEEISIEVSNPSLLDPDQDATYFGAFKVRDID,percentage of EdU-negative,[1]; [11],28.6 ± 1.4%
same,percentage of EdU-negative,[1]; protein concentration 0.225 µM,25.6 ± 1.6%
same,percentage of EdU-negative,[2]; [11],4.57 ± 0.17%
same,percentage of EdU-negative,[2]; protein concentration 0.225 µM,5.25 ± 0.66%
MRRLLIPLALWLGAVGVGVAELTEAQRRGLQVALEEFHKHPPVQWAFQETSVESAVDTPFPAGIFVRLEFKLQQTSCRKRDWKKPECKVRPNGRKRKCLACIKLGSEDKVLGRLVHCPIETQVLREAEEHQETQCLRVQRAGEDPHSFYFPGQFAFSKALPRS,percentage of EdU-negative,[1]; [11],27.7 ± 0.92%
same,percentage of EdU-negative,[1]; protein concentration 0.225 µM,26.6 ± 2.6%
same,percentage of EdU-negative,[2]; [11],4.71 ± 0.87%
same,percentage of EdU-negative,[2]; protein concentration 0.225 µM,5.88 ± 0.56%
MRRLLLVTSLVVVLLWEAGAVPAPKVPIKMQVKHWPSEQDPEKAWGARVVEPPEKDDQLVVLFPVQKPKLLTTEEKPRGQGRGPILPGTKAWMETEDTLGHVLSPEPDHDSLYHPPPEEDQGEERPRLWVMPNHQVLLGPEEDQDHIYHPQ [Q96NZ9],percentage of EdU-negative,[1]; protein concentration 0.013 µM,23.14 ± 0.14%
same,percentage of EdU-negative,[1]; protein concentration 0.13 µM,27.38 ± 0.25%
same,percentage of EdU-negative,[2]; protein concentration 0.013 µM,4.69 ± 0.15%
same,percentage of EdU-negative,[2]; protein concentration 0.13 µM,5.48 ± 0.53%
